According to US20120270801A1 (Affibody, published 2012):

Target: T1, recombinant human HER3/Fc chimera (R&D Systems, #348-RB-050) (human, UniProt P21860 20-643)
T1 construct: Bought reagent; Biotinylated for flow cytometry, unlabelled for dot blot, ELISA and SPR; also called biotinylated HER3-Fc; not shown: human IgG Fc-region
Assay: SPR, 2.5 nM HER3-Fc alone injected over immobilised heregulin

B1: heregulin (HRG1-β1, EGF-like domain, R&D Systems) (ligand, human, UniProt Q02297-6 177-241, looked up)
chain: SHLVKCAEKEKTFCVNGGECFMVKDLSNPSRYLCKCPNEFTGDRCQNYVMASFYKHLGIEFMEAE
notes: domain: EGF-like domain; also called human heregulin; HRG1-β, 396-HB
  binding result: binds
